Test results taken from the DeepSol protein solubility set.

Assay: soluble on expression in E. coli; label from the status in PepcDB or PDB records

Sequence | soluble on expression in E. coli
MRVAVLGAGAWGTALAVLLASKGVPTRLWARRKAQAEALKAMRENRDYLPGVALPAYLYPTHDPEEALEGAELAVLAVPSKALRETVAGLPPAPWYVSATKGLFYGEEGVRTPAEVVEALTQRPVVALSGPNHAEEVARFLPTASVAAGPEDLARRVQALFSGPTFRVYTSRDRRGVELGGAVKNVLALAAGMVDGLRLGDNAKAALLTRGLKEMVRFGTALGGEEATFYGLAGLGDLLATAYSLHSRNRMAGESLVRGVDREALEARGVVEGLYAVKAMVAWGKEQGVELPVAEAVHRVAHEGLDPLAALKALMAREPKEE | soluble
MKKWLLAAGLGLAMVTSAQAADKIAIVNMGNLFQQVAQKTGVSNTLENEFKGRAAELQKMETDLQSKMQRLQSMKAGSDRTKLEKDVMSQRQTFAQKAQAFEKDRARRSNEERNKLVTRIQTAVKKVANDQSIDLVVDANTVAYNSSDVKDITADVLKQVK | not soluble
MRALGQNPTNAEVLKVLGNPKSDEMNVKVLDFEHFLPMLQTVAKNKDQGTYEDYVEGLRVFDKEGNGTVMGAEIRHVLVTLGEKMTEEEVEMLVAGHEDSNGCINYEELVRMVLNG | soluble
SLTTEVVMENVTAFWEEGFGELFEKAKQNNNNRKTSNGDDSLSFSNFSLLGTPVLKDINFKIERGQLLAVAGSTGAGKTSLLMMIMGELEPSEGKIKHSGRISFCSQFSWIMPGTIKENIIFGVSYDEYRYRSVIKACQLEEDISKFAEKDNIVLGEGGITLSGGQRARISLARAVYKDADLYLLDSPFGYLDVLTEKEIFESCVCKLMANKTRILVTSKMEHLKKADKILILHEGSSYFYGTFSELQNLQPDFSSKLMGGGGGSGGGGSGGGGSDDIWPSGGQMTVKDLTAKYTEGGNAILENISFSISPGQRVGLLGRTGSGKSTLLSAFLRLLNTEGEIQIDGVSWDSITLQQWRKAFGVIPQKVFIFSGTFRKNLDPYEQWSDQEIWKVADEVGLRSVIEQFPGKLDFVLVDGGCVLSHGHKQLMCLARSVLSKAKILLLDQPSAHLDPVTYQIIRRTLKQAFADCTVILCEHRIEAMLECQQFLVIEENKVRQYDSIQKLLNERSLFRQAISPSDR | soluble
MSWQNQGMQALIPVINRVQDAFSQLGTSVSFELPQIAVVGGQSAGKSSVLENFVGKDFLPRGSGIVTRRPLILQLIQDRNEYAEFLHKKGHRFVDFDAVRKEIEDETDRVTGQNKGISPHPINLRVFSPNVLNLTLIDLPGLTKVPVGDQPADIEQQIRDMILTFINRETCLILAVTPANSDLATSDALKLAKEVDPQGLRTIGVLTKLDLMDEGTDAREILENKLFTLRRGYVGVVNRGQKDIVGRKDIRAALDAERKFFISHPSYRHMADRLGTSYLQHTLNQQLTNHIRDTLPTLRDSLQKKMFAMEKDVAEYKNYQPNDPGRKTKALLQMVTQFNADIERSIEGSSAKLVSTNELSGGARINRLFHERFPFEIVKMEIDEKEMRKEIQYAIRNIHGIRVGLFTPDMAFEAIAKKQITRLKEPSLKCVDLVVNELANVIRQCADTMARYPRLRDELERIVVSHMREREQIAKQQIGLIVDYELAYMNTNHEDFIGFSNAEAKASQGQSAKKNLGNQVIRKGWLSLSNVSFVRGSKDNWFVLMSDSLSWYKDDEEKEKKYMLPLDGVKLKDIEGGFMSRNHKFALFYPDGKNIYKDYKQLELGCTNLDEIDAWKASFLRAGVYPEKQKAQEDESQQEMEDTSIDPQLERQVETIRNLVDSYMRIITKTIKDLVPKAVMHLIVNQTGEFMKDELLAHLYQCGDTDALMEESQIEAQKREEMLRMYHACKEALRIISEVNMSTLGDQPPPLPMSDYRPHPSGPSPVPRPAPAPPGGRQAPMPPRGGPGAPPPPGMRPPPGAPGGGGGMYPPLIPTRVPTPSNGAPEIPARPQVPKRPF | not soluble
MDINLEYSLHDTQFFWQALSIRYHHAQRLKQLQRELAGFEQIKKFTLLPEAFSMEAGLITPTLKQRCKMIYHKYAHEINAMYNNLEHHHHHH | not soluble
MWTNTFQEGLKIVGENISLSLPDGRQELFRLTDGAISSDATTGTLSKDQAGWRYDYRDGTSSLFDVQGRLIQRKVRGQVITITYPNLSTTKAKDGFGNTLTVSWNATKQPYLVDYNGSLKVEYLYDGGARLVSKKTTSQGLNRTRKYLYADSGNAGLMVGIIDEQGTRYATWTYDNQGRAISSEHANGAEKVSLAYNDDGSTTVTNEYGKQATYRFQVIQGIKRIVAIEGQPSPNCPSSNSTFTYDDQGLLTSKRDNNGNLTTYQYNARGLETSRTEAAGTAQARTITTDWHPTLFLPVQVSEPGRITRYQYDAEGRKTGETVTTR | not soluble
MYPQQTSAAVGARKMRVVGVVEETHDARSILVEPHPEHIDAFDYRPGQFLTVRVPDVGSGTARCYSLSSSPHVDSTMKFTVKRVAGGHGSNWLCDEIALGDELEVLPPAGTFTVRSLDQSVVLVAGGSGITPVIAIAKSILHAGTGTVLLVYANRDERSVIFGEQLRELGERFGSRFTVIHVLESVQGYLTAPAMSNLIRPFTDRAVYICGPEPLMKLVKAVCSAEGIAPSQVMTERFVSLSTDPFRNPVEDKPSTSDTGVEVSAQDEAAAGDCTVHVSLDGTERTVAWPRSKRLLDALLDAGVEAPFSCREGACSACVCSLTEGEVRLVRNEVLEADDLADGYILACQAEVVTDQISIKY | not soluble
MASLSYPKTTMQIQLGANLKPYHTFGIEQLAAQLVVAESIDDLKALYCSAEWASLPKLIIGKGSNMLFTCHYTGMIVVNRLNGIEHQQDDDYHRLHVAGGEDWPSLVSWCVEQGIGGLENLALIPGCAGSAPIQNIGAYGVEFKDVCDYVEYLCLETGTVKRLTMEECQFGYRDSIFKHQLYQKAVVTAVGLKFAKAWQPIIQYGPLKDLSSDCAIHDVYQRVCATRMEKLPDPAVMGNAGSFFKNPVISQQAFARLQIEHPDVVAYPAEQGVKVAAGWLIDQAGLKGHQIGGAKVHPKQALVIVNTGDASAQDVLMLAADIQQRVFNCYGIELEHEVRFIGESEETNLKQWMSEQA | soluble
MIPLVAPRSVIERVEAICREAGGILRVAPYRRLQVGLITTGSEVYKGRIKDAFGPVVRAKIASYGSEVALEKVVPDDAAAIHDAIEEMLAAGMQMVVLTGGMSVDPDDVTPDGIRRSGAEVVTYGAPVLPGAMFMLAYRGDVPIMGLPGCVMYYRATVFDLVLPRILVGERLEHHHHHH | not soluble
MSAQKPGLHPRNRHQHRYDLAALCQTTPELTSFLIRTPAGEQSVDFANPQAVKALNKALLAHFYAVTHWDIPPGFLCPPVPGRADYIHHLADLLGETTGSIPAQATILDVGVGANCIYPLIGVHEYGWRFTGSEVSDAAMSSAQAIIQANTGLSRAIRLRRQKDPAAIFTGIIHKNEFYDATLCNPPFHDSAAAARAGSERKRRNLGQNKDDALNFGGQQQELWCEGGEVAFIKKMIAESQSFRRQVLWFTTLVSRGENLPPLYRALTEAGAVKVVKKEMAQGQKQSRFIAWTFMDDDQRRRFITRKR | not soluble
GNYHVTLQASYIAKNVEDVEDAIGVAISQIGKLLNKGSLDYVDIDVGLTICPKCGEPIDCVLVVAKTAIVGILLSMKVFNAESPEHAVRIAKSSIGRALKDIP | not soluble
MYETYHSGWIECITGSMFSGKSEELIRRLRRGIYAKQKVVVFKPAIDDRYHKEKVVSHNGNAIEAINISKASEIMTHNLTNVDVIGIDEVQFFDDEIVSIVEKLSADGHRVIVAGLDMDFRGEPFEPMPKLMAVSEQVTKLQAVCAVCGSSSSRTQRLINGKPAKIDDPIILVGANESYEPRCRAHHIVAPSDNNKEEL | not soluble
MTQDPHQTADILIIGGGLSGSMLAAQLLRRPGQRRILIIETRSELGRGEAYSATEPGHTLNGNAARMSVDPDNAHDLTEWLTGYLAEGGWPEAAEQKIPVAELFPPRGVFGLYVQQRLREAQVVGEGFGSTVGHVRAEAVDVQVSEQGVSVTLADGRELRGSQAVLATGMYAASRTPQRESNALNAASLDPWDVSVMQQLDPQTRVLIIGSGLTMVDALVSLEKAGHRGPIQVFSRHGLLPHVRRQPPEWSDFLAQDPSIRSTRQLVRKVREQCELAIESGIDWQAPLDTVRANVGRLWNQATDTQRRQFVRHVRPWWESHHHRSPPPSAALLARLVKQGRLSIEAASLQGVASLPSGQVQISVRRRGEHEPTHILGDALINSTGIEYDWRRVDRPLPRQLLARGLIQPGPLALGIAAAHDGAVLDAQGQRSAHLFAMGPPLRGMWWESTAVTDVAIQAKALAMRLALEHHHHHH | soluble
MGSDKIHHHHHHMKTVIIVQARMTSTRLPGKVLKKVLDKPLLEYQIERLKRVKLADEIVIATTINSTDLPIIELCDRLSIPYFLGSEEDVLTRYYGAAKEHQADVVVRITSDCPLIDPLVINKVIQFFLDYRHECDYVSNSLERTYPRGMDTEVFSFLALHQAFVEAIAQPDREHVTPFIYMHPERYRLAQVVYSENQSSHRWTVDTADDFELIKRIIETLYPEIPKFTLEDCLDLFREYPDWSLINAHVEQKKYAA | not soluble
AIWRSRSFDEAIEMFRESLYSAKNEVIVVTPSEFFETIREDLIKTLERGVTVSLYIDKIPDLSEFKGKGNFFVRQFYKLNHLIGMTDGKEVVTIQNATFDSIGPPSFKSTYPEIIFSQYSLIIEIFKESTLEKEIIGNPKDIRFFAMFHAVDFVKNHLKNRNIYAEITGKNLESGRLETLTGRVVGYTLSLREAVNNIHLETENGVVKVGGMFAVIEDYESTEIKFIMGGSRS | soluble
MSLKGSEVITKFSKVDTIMFDKTGTLTYGDPRVSQVKKYGQGQLAEQLLVSVEKESAHPLAKAITGYYEDLEAEEVEASRVLQGGGIVAQVAGQQVLVGNRYLLDQYHVLVTKEMERDMEELASAGNSLVLVAVNGQLELALGLKDEIRAGVKEDLAALKKQGVKNLLLLSGDNQKTVDLVAEELGPTEAYGQLLPEDKAEFVKKRQAAGEIVAFVGDGINDSPSLARADIGIAMGSGTDVAIETSNVVLMNGSFDRIPRALALAKATRRNMIENEGHHHHHH | soluble
MSLTPYNVARKRGELKYLLLTESQFDGGMMLRFVLRSETKLTQLRAALPWLRAQLPQLRVITANIQPVHMAIMEGETEIYLTDQQALAERFNDVPLWIRPQSFFQTNPTVASRLYATARDWVGQLPVRHMWDLFCGVGGFGLHCATPQMQLTGIEIAPEAIACAKQSAAELGLTRLHFQALDSTQFATAQGETPDLVLVNPPRRGIGKPLCDYLAQMAPRFIIYSSCNAQTMAQDIRHLPNYRIQRVQLFDMFPHTAHYEVLALLRRSEGHHHHHH | not soluble
MTQTVDIENTDNVLSRRDSNAETQQMLRQRFETQPDLMPAQLASELGIAELEVVTALPQAQRVFLPLAHMDELLQSLPEWGSLTTIVMLSGSVFEFKGDFPQGKFAHGYYNLYSKGDGLHGHLKLDGMRAIALISRPFRGSESHSINFFGPQGEVVFKVYLGRDKQRVLFPDQVRRFKALAATFAD | soluble
MRIGLFGGSFDPIHLGHLLAASQAQEVLCLDRVLFVVAARPPHKVPVAPAEARYEMTLLAVAEDPRFTVSRLELDRPGPSYTVDTLREARRLFPQDELFFITGADAYRDVLTWKEGERLPEYATLVAVARPGYPLEEAPLPVVPLFVPEVGISSTEIRRRLKEGRSVRYWVPRAVEVYIEKHGLYR | soluble
MSLEIPKDFFVKDGEPNVKIVVGSEGAAMDVVSAADIAAAIGSLLYTEKEVKVSDVSVVVRKDITYDPDDIPVFNNFYPNKNQVFIVGQDSLKDVEAWWNGSAFSANYTASVWNGGTYSGTYSLELENVANYGKYDLTGELTLKGITLEEIANNEVNFKDIEDFKDMTVKINSAVLNITLAVYNWTKTVKAKDPITGVTTTKVKWTLSNVQPGAGYSISDTISKGVGEGVTLKVFDKEFPIMFVGKAISKNAIVDAADSFVYGTYHGTDFYDQGQEVEFDGYKVEILDIDIQRNEGHHHHHH | not soluble
QFKVKSAFKKYSQVATQNGVTGAQAALRILQRGGLENVNVEMTSGMLSDHYDPRQKVLRLSEEVYSLPSIASVGVAAHEAGHALQDKVNYSPLAIRSAM | not soluble
